Data from patent US10925971B2, “Methods of treating PRLR positive breast cancer” (Regeneron Pharmaceuticals, Inc., priority 2016, dated 2021).

How the values were obtained:
[1] = system: PRLR expressing cells; test: In vitro cell viability (cell kill) assay, several cell backgrounds; assay type: cell-based, human; settings: PC3/hPRLR and MCF7/hPRLR cell lines
From the text: (§1) PRLR-overexpressing cells, including HEK293, PC3, MCF7 and NCI-N87, were generated to assess the ability of anti-PRLR conjugated antibodies to reduce cell viability. For comparative purposes, PC3 and T47D cells with overexpressed ErbB2 were also generated, as well as an MCF7 cell line over-expressing both hPRLR and hErbB2. Briefly, Lipofectamine® 2000-mediated transfection methodology was utilized to generate HEK293 cells expressing human PRLR (HEK293/hPRLR) or human ErbB2 (HEK293/hErbB2). Lipofectamine LTX with Plus Reagent was used to generate PC3 cells expressing human PRLR (PC3/hPRLR) or human ErbB2 (PC3/hErbB2). Lentiviral-mediated transduction was utilized to generate MCF7 cells expressing human PRLR (MCF7/hPRLR), NCI-N87 cells expressing human PRLR (NCI-N87/hPRLR), T47D cells over-expressing human ErbB2 (T47D/hErbB2), and MCF7 cells expressing both human PRLR and human ErbB2 (MCF7/hPRLR/hErbB2). All lines were selected for at least two weeks in complete growth media plus appropriate selection reagents. Stably expressing populations were enriched for PRLR expression via FACS using the anti PRLR antibody Control I.
(§2) Next, the ability of anti-PRLR-DM1 antibody-drug conjugates (i.e., anti-PRLR antibodies conjugated to DM1 via a non-cleavable linker [SMCC]) to reduce cell viability was determined using in vitro cell based assays. Cells were seeded in PDL-coated 96 well plates at 1500 to 10000 cells per well in complete growth media and allowed to grow overnight. For cell viability curves, ADCs or free DM1 (as the methyl disulfide derivative DM1-SMe) were added to the cells at final concentrations ranging from 500 nM to 5 pM and incubated for 3 days. The 293, PC3 and T47D cells were incubated with CCK8 (Dojindo, Rockville, Md.) for the final 1-3 hours and the absorbance at 450 nm (OD450) was determined on a Flexstation3 (Molecular Devices, Sunnyvale, Calif.). MCF7 cells were treated with Hoechst 33342 nuclear stain while being fixed with 4% formaldehyde. Images were acquired on the ImageXpress micro XL (Molecular Devices, Sunnyvale, Calif.) and nuclear counts were determined via Columbus image analysis software (Perkin Elmer, Shelton, Conn.). Background OD450 values (PC3, 293, and T47D) or nuclear counts (MCF7) from digitonin (40 nM) treated cells was subtracted from all wells and viability was expressed as a percentage of the untreated controls. IC50 values were determined from a four-parameter logistic equation over a 10-point response curve (GraphPad Prism).

[2] = system: HEK293 (293) cells; test: In vitro cell viability (cell kill) assay, CCK8; assay type: cell-based, human
Outline: (§3)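 hPRLR stable lines; anti-PRLR-DM1 ADC (SMCC) or DM1-SMe, 10-pt 500 nM–5 pM, 3 d. CCK8 OD450 final 1-3 h (293/PC3); Hoechst nuclear count imaging (MCF7).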

[3] = system: HEK293/hPRLR (293/hPRLR) cells; test: In vitro cell viability (cell kill) assay, CCK8; assay type: cell-based, human
Outline: as §3

[4] = system: PC3 cells; test: In vitro cell viability (cell kill) assay, CCK8; assay type: cell-based, human; settings: Table 11, 3 days
Outline: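 Cells stably overexpressing human PRLR (transfected or lentiviral, FACS-enriched) were treated for 3 days with anti-PRLR-SMCC-DM1 ADCs or free DM1-SMe at 500 nM to 5 pM. HEK293 and PC3 viability was read by CCK8 OD450; MCF7 by Hoechst nuclear counts. Digitonin background subtracted; % of untreated; IC50 from 10-point four-parameter fit.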

[5] = system: MCF7 (MCF7/ATCC) cells; test: In vitro cell viability (cell kill) assay, nuclear counts; assay type: cell-based, human; settings: MCF7; Table 16
Outline: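 Anti-PRLR–DM1 ADCs (non-cleavable SMCC linker) or free DM1-SMe, 500 nM to 5 pM for 3 days on parental or hPRLR-overexpressing lines. HEK293: CCK8 OD450; MCF7: Hoechst nuclear counts by imaging.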

[6] = system: T47D cells; test: In vitro cell viability (cell kill) assay, CCK8; assay type: cell-based, human; settings: for % Kill: T47D
Outline: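 T47D cells grown overnight, then exposed for 3 days to anti-PRLR-DM1 ADCs (SMCC non-cleavable linker) or DM1-SMe at 500 nM to 5 pM.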

[7] = system: NCI-N87/hPRLR cells; test: In vitro cell viability (cell kill) assay; assay type: cell-based, human; settings: NCI-N87/PRLR; Table 17
From the text: PRLR-overexpressing cells, including HEK293, PC3, MCF7 and NCI-N87, were generated to assess the ability of anti-PRLR conjugated antibodies to reduce cell viability. For comparative purposes, PC3 and T47D cells with overexpressed ErbB2 were also generated, as well as an MCF7 cell line over-expressing both hPRLR and hErbB2. Briefly, Lipofectamine® 2000-mediated transfection methodology was utilized to generate HEK293 cells expressing human PRLR (HEK293/hPRLR) or human ErbB2 (HEK293/hErbB2). Lipofectamine LTX with Plus Reagent was used to generate PC3 cells expressing human PRLR (PC3/hPRLR) or human ErbB2 (PC3/hErbB2). […]
Next, the ability of anti-PRLR-DM1 antibody-drug conjugates (i.e., anti-PRLR antibodies conjugated to DM1 via a non-cleavable linker [SMCC]) to reduce cell viability was determined using in vitro cell based assays. […] The 293, PC3 and T47D cells were incubated with CCK8 (Dojindo, Rockville, Md.) for the final 1-3 hours and the absorbance at 450 nm (OD450) was determined on a Flexstation3 (Molecular Devices, Sunnyvale, Calif.). […] Images were acquired on the ImageXpress micro XL (Molecular Devices, Sunnyvale, Calif.) and nuclear counts were determined via Columbus image analysis software (Perkin Elmer, Shelton, Conn.). […] IC50 values were determined from a four-parameter logistic equation over a 10-point response curve (GraphPad Prism).

[8] = system: HEK293/hErbB2 cells; test: In vitro cell viability (cell kill) assay; assay type: cell-based, human; settings: 293/ErbB2; Table 14
From the text: as §1, §2
(§4) The potency of anti-PRLR conjugated antibodies compared with a similarly conjugated antibody to the co-expressed ErbB2 cell surface target was also assessed.

[9] = system: MCF7/hPRLR/hErbB2 cells; test: In vitro cell viability (cell kill) assay; assay type: cell-based, human; settings: MCF/PRLR + ErbB2; Table 17
From the text: as §1, §2, §4

[10] = system: PC3/hErbB2 cells; test: In vitro cell viability (cell kill) assay; assay type: cell-based, human; settings: PC3/ErbB2; Table 15
From the text: as §1, §2, §4

[11] = system: MCF7/PRLR tumors; test: MCF7/PRLR breast cancer xenograft, tumor size and tumor growth inhibition; assay type: in vivo, NCr nude mice; settings: for Average Tumor Growth Inhibition (%) / Final Tumor size mm^3 (mean ± SEM): MCF7/PRLR tumors TRIAL #1, NCr Nude mice, Day 52
Outline: (§5)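 MCF7/PRLR cells in mammary fat pad of female NCr nude mice, PC3/PRLR in flank of male SCID, T47D #11 in flank of female CB17 SCID, all with estrogen pellets.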

[12] = system: PC3/PRLR tumors; test: PC3/PRLR xenograft, tumor size and tumor growth inhibition; assay type: in vivo, SCID mice; settings: for Average Tumor Growth Inhibition (%) / Final Tumor size mm^3 (mean ± SEM): PC3/PRLR tumors TRIAL #1, SCID mice, Day 63
Outline: as §5

[13] = system: SK-BR-3 cells; test: In vitro cell viability (cell kill) assay; assay type: cell-based, human; settings: Table 16
[14] = system: T47D cells; test: Cell kill in the presence of PRLR ligand PRL (15 nM); assay type: cell-based, human; settings: Table 13, + 15 nM PRL
Method: as §2

[15] = target: human PRLR (dimeric) binding to PRL (Homo sapiens, UniProt P16471); test: ELISA-based blocking of PRLR binding to immobilized human PRL; settings: plates coated with 1 μg/mL PRL; read-out: EC50, human PRLR binding to captured PRL
human PRLR (dimeric) binding to PRL, sequence (P16471 with tags, fused parts or gaps limits assumed): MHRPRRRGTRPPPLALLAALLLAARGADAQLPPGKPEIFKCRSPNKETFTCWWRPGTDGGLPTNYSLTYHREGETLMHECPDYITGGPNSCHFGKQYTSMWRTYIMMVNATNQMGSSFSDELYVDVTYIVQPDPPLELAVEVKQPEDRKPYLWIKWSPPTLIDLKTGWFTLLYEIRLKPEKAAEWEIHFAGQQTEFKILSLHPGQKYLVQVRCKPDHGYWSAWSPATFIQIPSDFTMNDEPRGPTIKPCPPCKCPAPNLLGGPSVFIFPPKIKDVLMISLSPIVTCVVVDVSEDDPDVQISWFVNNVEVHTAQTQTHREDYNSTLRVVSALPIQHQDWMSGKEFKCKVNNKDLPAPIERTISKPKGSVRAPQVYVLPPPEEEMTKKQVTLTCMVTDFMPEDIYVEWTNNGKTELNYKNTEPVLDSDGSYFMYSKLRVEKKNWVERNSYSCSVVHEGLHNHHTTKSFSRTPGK
Method: (§6) ELISA-based blocking assays were developed to determine the ability of H1H6958N2 and H1H6958N2-DM1 to block binding of human and cynomolgus monkey PRLR to immobilized human PRL. Dimeric forms of human or cynomolgus monkey (Macaca fascicularis) PRLR and monomeric human PRL were used in this assay. To generate initial dose-response curves, human or monkey PRLR at concentrations ranging from 3.38 pM to 200 nM was added to the plates previously coated in 1 μg/mL PRL. After 1-hour incubation, captured PRLR was detected with HRP-conjugated goat anti-Fcγ antibody and visualized with TMB colorimetric substrate by measuring absorbance at 450 nm. […] Mixtures were then added to plates coated with in 1 μg/mL PRL and captured PRLR was detected as described above. Data were analyzed using a four-parameter logistic equation over an 11-point response curve in GraphPad Prism software and IC50 values were calculated.

[16] = target: cynomolgus monkey PRLR (dimeric) binding to PRL; test: as above; design: species or system Macaca fascicularis; settings: plates coated with 1 μg/mL PRL; read-out: EC50, monkey PRLR binding to captured PRL
cynomolgus monkey PRLR (dimeric) binding to PRL, sequence (as listed by the source): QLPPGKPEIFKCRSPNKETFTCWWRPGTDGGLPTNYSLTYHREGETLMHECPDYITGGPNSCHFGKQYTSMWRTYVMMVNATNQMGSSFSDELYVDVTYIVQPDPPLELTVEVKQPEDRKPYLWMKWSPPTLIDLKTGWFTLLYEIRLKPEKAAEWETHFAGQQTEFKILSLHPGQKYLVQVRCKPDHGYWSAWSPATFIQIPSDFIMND
Method: as §6

[17] = system: PRLR in HEK293/PRLR/STAT5-Luc cells; test: STAT5 luciferase reporter assay, blocking of PRL-induced PRLR signaling (2 nM PRL); assay type: cell-based; settings: PRL dose response, no antibody; read-out: EC50, stimulation of human PRLR signaling
Method: The capacity of H1H6958N2 and H1H6958N2-DM1 to block human PRL-induced PRLR signaling was determined in a luciferase reporter assay using the HEK293 cell line engineered to constitutively express PRLR and stably transduced with a lucifierase reporter construct comprising 5 tandem STAT5 binding sites derived from the promoter of the human interleukin-2 receptor α gene [STAT5 response element (×5)-luciferase] (John et al., The EMBO Journal, 1996, 15(20): 5627-5635). […] Plates were incubated at 37° C. and 5% CO2 for 5 hours and equilibrated to room temperature for 10 minutes. Luciferase activity was again measured using the ONE-Glo substrate and measuring luminescence.

B1: H1H6953N-DM1 (conjugate)
VH: EVQLLESGGGLVQPGGTLRLSCAASGFTFSAYAMSWVRQAPGKGLEWVSSINVRAGDTYYADSVKGRFTISRDNSKNTLFLLMNSLRAEDTAAYYCAKARYSSNWGFDFWGQGTLVTVSS
VL: DIVMTQSPDSLTVSLGARTTINCQSSQTILHSSNNHNYLAWYQQKPGLPPKLLIYWSSTRESGVPDRFSGSGSGTDFTLTISSLQAEDVAIYYCQQYSNTPYTFGQGTKLEIN
cell killing, non-cleavable DM1 ADCs versus cleavable MMAE ADCs [1]: nearly equivalent cell killing
% Kill ([2]; 293, Table 11, 3 days): 88%
% Kill ([2]; 293, Table 14): 92%
% Kill ([3]; 293/PRLR, Table 14): 93%
percent killing ([3]; 293/hPRLR cells): 93%
% Kill [4]: 78%
IC50 [4]: 110 nM
% Kill [5]: 74%
percent killing ([6]; T47D cells): 78%
% Kill ([6]; Table 16): 78%
% Kill [7]: 94%
% Kill [8]: 98%
IC50 [8]: 120 nM
% Kill [9]: 77%
% Kill [10]: 73%
Average Tumor Growth Inhibition (%) ([11]; multi-dose 5 mg/kg): 120%
Final Tumor size mm^3 (mean ± SEM) ([11]; multi-dose 5 mg/kg): 107 ± 45 mm^3
Average Tumor Growth Inhibition (%) ([11]; multi-dose 15 mg/kg): 133%
Final Tumor size mm^3 (mean ± SEM) ([11]; multi-dose 15 mg/kg): 0 ± 0 mm^3
MCF7/PRLR tumor growth ([11]; first multi-dose trial, 5 and 15 mg/kg): potently inhibited MCF7/PRLR tumor growth
Average Tumor Growth Inhibition (%) ([12]; multi-dose 5 mg/kg): 23%
Final Tumor size mm^3 (mean ± SEM) ([12]; multi-dose 5 mg/kg): 1058 ± 138 mm^3
Average Tumor Growth Inhibition (%) ([12]; multi-dose 15 mg/kg): 39%
Final Tumor size mm^3 (mean ± SEM) ([12]; multi-dose 15 mg/kg): 892 ± 53 mm^3
PC3/PRLR tumor growth ([12]; multi-dose, especially at 15 mg/kg): demonstrated inhibition of tumor growth
% Kill [13]: 77%

B2: H1H6782P-SMCC-DM1 (conjugate)
VH: EVQLVESGGGLVQPGRSLRLSCAASGFTFDDYAMHWVRQAPGKGLEWVSGIIWNSGHIGYGDSVKGRFTISRDNAKKSLYLQMNSLRAEDTALYYCARDSGRYQSYFDYWGQGTLVTVSS
VL: DIQMTQSPSTLSASVGDRVTITCRASHIISSWLAWYQQKPGKAPKVLIFKASSLESGVPSRFSGSGSGTEFTLTISSLQPDDFATYYCQQYNTYSRTFGQGTKVEIK
% Kill ([2]; HEK293, Table 13, + 15 nM PRL): 78%
% Kill ([2]; HEK293, Table 13, without PRL): 83%
% Kill ([6]; Table 13, without PRL): 98%
% Kill [14]: 97%

B3: PRL: monomeric human prolactin, ligand of PRLR (protein)
chain: LPICPGGAARCQVTLRDLFDRAVVLSHYIHNLSSEMFSEFDKRYTHGRGFITKAINSCHTSSLATPEDKEQAQQMNQKDFLSLIVSILRSWNEPLYHLVTEVRGMQEAPEAILSKAVEIEEQTKRLLEGMELIVSQVHPETKENEIYPVWSGLPSLQMADEESRLSAYYNLLHCLRRDSHKIDNYLKLLKCRIIHNNNC
EC50 [15]: 4.9 nM
EC50 [16]: 5.7 nM
EC50 [17]: 2.1 nM
